For one substance, Mean Fluorescence Intensity results are on record in US20060020118A1.

For the assay, the target named is human IFNAR1 (first human interferon-alpha receptor), membrane form on cells (human) (UniProt P17181). Put plainly: flow cytometry, fluoresceinated control IgG on U266 cells, no soluble hIFNAR1.
Sequence of UniProt P17181 (P17181 28-557): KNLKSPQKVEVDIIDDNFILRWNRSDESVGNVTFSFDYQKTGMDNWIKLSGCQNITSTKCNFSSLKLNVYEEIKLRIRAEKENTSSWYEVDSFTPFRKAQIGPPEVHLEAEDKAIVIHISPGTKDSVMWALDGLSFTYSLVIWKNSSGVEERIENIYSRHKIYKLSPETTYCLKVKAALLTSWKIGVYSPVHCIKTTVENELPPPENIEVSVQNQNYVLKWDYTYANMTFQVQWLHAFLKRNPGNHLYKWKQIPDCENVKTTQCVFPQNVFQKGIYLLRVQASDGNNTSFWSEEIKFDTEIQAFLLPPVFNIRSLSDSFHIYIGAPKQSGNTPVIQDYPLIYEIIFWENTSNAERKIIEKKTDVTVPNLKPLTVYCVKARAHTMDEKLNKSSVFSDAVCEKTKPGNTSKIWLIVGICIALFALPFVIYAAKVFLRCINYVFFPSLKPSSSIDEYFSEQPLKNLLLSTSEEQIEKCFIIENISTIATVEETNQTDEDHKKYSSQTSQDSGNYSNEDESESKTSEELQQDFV

As to fluoresceinated control IgG (antibody), the Mean Fluorescence Intensity came out at 2.99.
